Measured values reported in patent US20240124560A1.

Key:
Test in all cases: cell-based or functional assay
[1] = target: HIV-1 Env of pseudovirus NIH-091_231965.c01 (clade D) (HIV-1)
[2] = target: HIV-1 Env of NIH-008_WEAU.d15.410.787 (HIV-1)
[3] = target: HIV-1 Env of pseudovirus NIH-046_1394C9G1(Rev.) (HIV-1)
[4] = target: HIV-1 Env of isolate NIH-091_231965.c01 (HIV-1)
[5] = target: HIV-1 Env of pseudovirus NIH-107_T251.18 (HIV-1)
[6] = target: HIV-1 Env of NAC_92BR020 (HIV-1)
[7] = target: HIV-1 Env of pseudovirus NIH-056_Q168ENVa2 (HIV-1)
[8] = target: HIV-1 Env of pseudovirus NAC_JRCSF (HIV-1) (UniProt P20871)
[9] = target: HIV-1 Env of pseudovirus NIH-066_191084 B7.19 (HIV-1)
[10] = target: HIV-1 Env of pseudovirus NIH-021_ZM214M.PL15 (HIV-1)
[11] = target: HIV-1 Env of NIH-006_AC10.0.29 (HIV-1)
[12] = target: HIV-1 Env of pseudovirus NIH-073_C3347.c11 (HIV-1)
[13] = target: HIV-1 Env of NIH-021_ZM214M.PL15 (HIV-1)
[14] = target: HIV-1 Env of NIH-042_ZM246F.D5 (HIV-1)
[15] = target: HIV-1 Env of pseudovirus NIH-034_Ce0393 C3 (HIV-1)
[16] = target: HIV-1 Env of pseudovirus NIH-036_Ce2010 F5 (HIV-1)
[17] = target: HIV-1 Env of pseudovirus NIH-115_928.28 (HIV-1)
[18] = target: HIV-1 Env of pseudovirus NIH-119_T211.9 (HIV-1)
[19] = target: HIV-1 Env of NIH-119_T211.9 (HIV-1)
[20] = target: HIV-1 Env of NAC_YU2 (HIV-1) (UniProt P35961)
[21] = target: HIV-1 Env of pseudovirus NIH-040_Ce703010054 2A2 (HIV-1)
[22] = target: HIV-1 Env of isolate NIH-090_A07412M1.vrc12 (HIV-1)
[23] = target: HIV-1 Env of NAC_94UG103 (HIV-1)
[24] = target: HIV-1 Env of pseudovirus NIH-104_3103.v3.c10 (HIV-1)
[25] = target: HIV-1 Env of pseudovirus NIH-082_X1193 c1 (clade G) (HIV-1)
[26] = target: HIV-1 Env of NIH-061_Q259ENVd2.17 (HIV-1)
[27] = target: HIV-1 Env of pseudovirus NIH-114_T257.31 (HIV-1)
[28] = target: HIV-1 Env of NIH-068_620345.c01 (HIV-1)
[29] = target: HIV-1 Env of pseudovirus NAC_TRJO.58 (HIV-1)
[30] = target: HIV-1 Env of NIH-046_1394C9G1(Rev.) (HIV-1)
[31] = target: HIV-1 Env of pseudovirus NIH-085_X2088 c9 (clade G) (HIV-1)
[32] = target: HIV-1 Env of NIH-074_C4118.c09 (HIV-1)
[33] = target: HIV-1 Env of NIH-099_3301.v1.c24 (HIV-1)
[34] = target: HIV-1 Env of pseudovirus NIH-079_BJOX010000.06.2 (HIV-1)
[35] = target: HIV-1 Env of NIH-031_HIV-16055.2.3 (HIV-1)
[36] = target: HIV-1 Env of NIH-044_ZM247F.F7 (HIV-1)
[37] = target: HIV-1 Env of NAC_89.6 (HIV-1)
[38] = target: HIV-1 Env of NIH-053_CNE52 (HIV-1)
[39] = target: HIV-1 Env of pseudovirus NAC_JRFL (HIV-1)
[40] = target: HIV-1 Env of pseudovirus NIH-070_R2184.c04 (HIV-1)
[41] = target: HIV-1 Env of pseudovirus NIH-042_ZM246F.D5 (HIV-1)
[42] = target: HIV-1 Env of pseudovirus NAC_HxB2 (HIV-1) (UniProt P04578)
[43] = target: HIV-1 Env of NAC_MN (HIV-1) (UniProt P05877)
[44] = target: HIV-1 Env of pseudovirus NIH-078_BJOX015000.11.5 (HIV-1)
[45] = target: HIV-1 Env of pseudovirus NIH-094_3817.v2.c59 (HIV-1)

PGZL1 (antibody) was tested, and the IC50 (µg/ml), TZM-bl cell neutralization assay, pseudovirus [1] was > 50 µg/mL, the IC80 neutralization [2] was 39.6 µg/mL and the neutralization IC50 [3] was 7.87 µg/mL. For the same substance, the IC80 (µg/ml), TZM-bl pseudovirus neutralization [4] was > 50 µg/mL, the neutralization IC50 [5] was 43 µg/mL and the IC80 neutralization [6] was > 50 µg/mL. It also gave a neutralization IC50 [7] of 21.7 µg/mL, a neutralization IC50 [8] of 13.4 µg/mL and a neutralization IC50 [9] of 30.9 µg/mL. For the same substance, the neutralization IC50 [10] was 28.7 µg/mL, the IC80 neutralization [11] was 18.8 µg/mL and the neutralization IC50 [12] was 0.055 µg/mL. For the same substance, the IC80 neutralization [13] was > 50 µg/mL, the IC80 neutralization [14] was > 50 µg/mL and the neutralization IC50 [15] was 13.5 µg/mL. The neutralization IC50 [16] was > 50 µg/mL, the neutralization IC50 [17] was 1.38 µg/mL and the neutralization IC50 [18] was 13.2 µg/mL. For the same substance, the IC80 neutralization [19] was > 50 µg/mL, the IC80 neutralization [20] was > 50 µg/mL and the neutralization IC50 [21] was 48.9 µg/mL. For the same substance, the IC80 (µg/ml), TZM-bl pseudovirus neutralization [22] was > 50 µg/mL, the IC80 neutralization [23] was > 50 µg/mL and the neutralization IC50 [24] was > 50 µg/mL. For the same substance, the IC50 (µg/ml), TZM-bl cell neutralization assay, pseudovirus [25] was 5.31 µg/mL, the IC80 neutralization [26] was > 50 µg/mL and the neutralization IC50 [27] was 29.6 µg/mL. For the same substance, the IC80 neutralization [28] was > 50 µg/mL, the neutralization IC50 [29] was > 50 µg/mL and the IC80 neutralization [30] was 34.3 µg/mL. For the same substance, the IC50 (µg/ml), TZM-bl cell neutralization assay, pseudovirus [31] was > 50 µg/mL, the IC80 neutralization [32] was 33.3 µg/mL and the IC80 neutralization [33] was > 50 µg/mL. The neutralization IC50 [34] was 1.66 µg/mL, the IC80 neutralization [35] was 42.6 µg/mL and the IC80 neutralization [36] was 48.2 µg/mL. For the same substance, the IC80 neutralization [37] was > 50 µg/mL, the IC80 neutralization [38] was > 50 µg/mL and the neutralization IC50 [39] was > 50 µg/mL. For the same substance, the neutralization IC50 [40] was 12.9 µg/mL, the neutralization IC50 [41] was 19.9 µg/mL and the neutralization IC50 [42] was 0.121 µg/mL. It also gave an IC80 neutralization [43] of 0.564 µg/mL, a neutralization IC50 [44] of 2.59 µg/mL and a neutralization IC50 [45] of 20.1 µg/mL.

Work on 4E10 (antibody) yielded an IC50 (µg/ml), TZM-bl cell neutralization assay, pseudovirus [1] of 13.8 µg/mL, an IC80 neutralization [2] of 2.59 µg/mL and a neutralization IC50 [3] of 2.58 µg/mL. For the same substance, the IC80 (µg/ml), TZM-bl pseudovirus neutralization [4] was > 50 µg/mL, the neutralization IC50 [5] was 0.905 µg/mL and the IC80 neutralization [6] was 13.5 µg/mL. For the same substance, the neutralization IC50 [7] was 3.78 µg/mL, the neutralization IC50 [8] was 0.823 µg/mL and the neutralization IC50 [9] was 1.23 µg/mL. The neutralization IC50 [10] was 5.31 µg/mL, the IC80 neutralization [11] was 2.73 µg/mL and the neutralization IC50 [12] was 0.034 µg/mL. The IC80 neutralization [13] was 21.2 µg/mL, the IC80 neutralization [14] was 6.7 µg/mL and the neutralization IC50 [15] was 0.606 µg/mL. For the same substance, the neutralization IC50 [16] was 14.4 µg/mL, the neutralization IC50 [17] was 0.112 µg/mL and the neutralization IC50 [18] was 1.2 µg/mL. The IC80 neutralization [19] was 5.08 µg/mL, the IC80 neutralization [20] was > 50 µg/mL and the neutralization IC50 [21] was 2.05 µg/mL. For the same substance, the IC80 (µg/ml), TZM-bl pseudovirus neutralization [22] was 10.4 µg/mL, the IC80 neutralization [23] was 7.48 µg/mL and the neutralization IC50 [24] was 8.11 µg/mL. For the same substance, the IC50 (µg/ml), TZM-bl cell neutralization assay, pseudovirus [25] was 0.359 µg/mL, the IC80 neutralization [26] was 28.9 µg/mL and the neutralization IC50 [27] was 1.03 µg/mL. The IC80 neutralization [28] was 3.06 µg/mL, the neutralization IC50 [29] was 2.97 µg/mL and the IC80 neutralization [30] was 10.4 µg/mL. For the same substance, the IC50 (µg/ml), TZM-bl cell neutralization assay, pseudovirus [31] was > 50 µg/mL, the IC80 neutralization [32] was 1.17 µg/mL and the IC80 neutralization [33] was > 50 µg/mL. It also gave a neutralization IC50 [34] of 0.438 µg/mL, an IC80 neutralization [35] of 6.57 µg/mL and an IC80 neutralization [36] of 7.5 µg/mL. The IC80 neutralization [37] was 10.9 µg/mL, the IC80 neutralization [38] was 3.85 µg/mL and the neutralization IC50 [39] was 17.8 µg/mL. It also gave a neutralization IC50 [40] of 0.223 µg/mL, a neutralization IC50 [41] of 1.68 µg/mL and a neutralization IC50 [42] of 0.021 µg/mL. For the same substance, the IC80 neutralization [43] was 0.135 µg/mL, the neutralization IC50 [44] was 0.165 µg/mL and the neutralization IC50 [45] was 0.417 µg/mL.

VRC01 (antibody) gave an IC50 (µg/ml), TZM-bl cell neutralization assay, pseudovirus [1] of 0.183 µg/mL, an IC80 neutralization [2] of 0.306 µg/mL and a neutralization IC50 [3] of 0.28 µg/mL. For the same substance, the IC80 (µg/ml), TZM-bl pseudovirus neutralization [4] was 0.743 µg/mL, the neutralization IC50 [5] was 2.02 µg/mL and the IC80 neutralization [6] was 0.23 µg/mL. It also gave a neutralization IC50 [7] of 0.056 µg/mL, a neutralization IC50 [8] of 0.172 µg/mL and a neutralization IC50 [9] of 0.049 µg/mL. For the same substance, the neutralization IC50 [10] was 0.612 µg/mL, the IC80 neutralization [11] was 3.52 µg/mL and the neutralization IC50 [12] was 0.063 µg/mL. The IC80 neutralization [13] was 2.42 µg/mL, the IC80 neutralization [14] was 43.7 µg/mL and the neutralization IC50 [15] was 0.37 µg/mL. The neutralization IC50 [16] was 0.153 µg/mL, the neutralization IC50 [17] was 0.249 µg/mL and the neutralization IC50 [18] was 12.8 µg/mL. The IC80 neutralization [19] was > 50 µg/mL, the IC80 neutralization [20] was 0.69 µg/mL and the neutralization IC50 [21] was 0.139 µg/mL. For the same substance, the IC80 (µg/ml), TZM-bl pseudovirus neutralization [22] was 0.216 µg/mL, the IC80 neutralization [23] was 0.752 µg/mL and the neutralization IC50 [24] was 1.53 µg/mL. The IC50 (µg/ml), TZM-bl cell neutralization assay, pseudovirus [25] was 0.098 µg/mL, the IC80 neutralization [26] was 0.449 µg/mL and the neutralization IC50 [27] was 1.61 µg/mL. For the same substance, the IC80 neutralization [28] was > 50 µg/mL, the neutralization IC50 [29] was 0.057 µg/mL and the IC80 neutralization [30] was 1.12 µg/mL. For the same substance, the IC50 (µg/ml), TZM-bl cell neutralization assay, pseudovirus [31] was > 50 µg/mL, the IC80 neutralization [32] was 0.202 µg/mL and the IC80 neutralization [33] was 0.463 µg/mL. It also gave a neutralization IC50 [34] of 1.77 µg/mL, an IC80 neutralization [35] of 0.206 µg/mL and an IC80 neutralization [36] of 0.945 µg/mL. For the same substance, the IC80 neutralization [37] was 3.3 µg/mL, the IC80 neutralization [38] was 0.565 µg/mL and the neutralization IC50 [39] was 0.141 µg/mL. The neutralization IC50 [40] was 0.103 µg/mL, the neutralization IC50 [41] was 10.7 µg/mL and the neutralization IC50 [42] was 0.022 µg/mL. For the same substance, the IC80 neutralization [43] was 0.196 µg/mL, the neutralization IC50 [44] was 0.06 µg/mL and the neutralization IC50 [45] was > 50 µg/mL.
